The text below walks through data of PMC10796598.

In the experiment the target is synaptobrevin2 (syb2) All ItoA (rat) (UniProt P63045).

With “synaptobrevin2 (syb2) All ItoA (from UniProt P63045 1-116) (natural protein)”, the mean open-state dwell time (<t (o-obs)>) of single fusion pores, ND5S(All ItoA) on t-SNARE BLM worked out at 36 ms.
